Source: US20240317853A1 (UNIVERSITY OF TOKYO, published 2024)

Biological target: T1, CADM1FcΔ10 (Δ10 Fc variant formed by fusing human Fc with a CADM1 extracellular domain) (human)
T1 construct: The whole entry is the fusion (CADM1 extracellular domain, AAA linker, human IgG1 hinge-Fc); Dimerized via Fc; also called Fc10; dimerized FcΔ10
Test: SPR (Biacore 8K), antibody amine-coupled on CM5, CADM1 as analyte, multi-cycle kinetics
Method: The antibody was diluted with a phosphate buffered saline (PBS) at a concentration of 1 mg/ml, and was then immobilized as a ligand on a sensor chip CM5 by an amine coupling method.

T1 sequence (chain, as listed by the source mutant limits assumed): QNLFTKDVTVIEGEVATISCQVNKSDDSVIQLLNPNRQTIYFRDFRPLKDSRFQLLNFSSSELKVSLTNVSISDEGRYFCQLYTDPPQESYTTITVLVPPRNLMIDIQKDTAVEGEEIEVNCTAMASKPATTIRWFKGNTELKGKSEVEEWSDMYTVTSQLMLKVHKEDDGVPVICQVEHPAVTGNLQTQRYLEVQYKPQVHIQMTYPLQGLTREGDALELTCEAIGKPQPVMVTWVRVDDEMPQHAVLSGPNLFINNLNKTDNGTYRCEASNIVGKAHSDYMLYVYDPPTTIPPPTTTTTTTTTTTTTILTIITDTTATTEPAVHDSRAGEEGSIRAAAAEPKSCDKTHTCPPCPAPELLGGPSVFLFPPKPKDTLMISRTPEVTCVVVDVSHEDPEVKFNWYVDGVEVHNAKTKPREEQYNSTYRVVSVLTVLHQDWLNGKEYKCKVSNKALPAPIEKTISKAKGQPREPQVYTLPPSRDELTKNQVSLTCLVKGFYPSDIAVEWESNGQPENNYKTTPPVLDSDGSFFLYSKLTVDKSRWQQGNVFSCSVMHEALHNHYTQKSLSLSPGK

B1: YTH-W-2C2 chimeric antibody (antibody, V domains shown)
VH: QVQLQQSGAELAKPGSSVKISCKASGYTFSNYDISWIKQTTGQGLDYIGYIHTGSGGTYYNEKFKGKATLTVDKSSSTAFMQLSSLTPEDTAVYYCARTPYVYYGSGYFDFWGPGTMVTVSS
VL: DIVMTQSPSSLAVSAGETVTINCKSSQSLLYSGNQKNYLAWYQQKPGQSPKLLIYWASTRQSGVPDRFIGSGSGTDFTLTISSVQAEDLAIYYCQQYYDTPDTFGAGTKLELKR
- Kd: 0.64 nM
